Literature values in patent US9932367B2, “Modification of polypeptides” (BicycleRD Limited, priority 2013, dated 2018).
Starred links: 1 amine or outer side, 2 acyl side, 3 side chain; linkers in the order of their positions; H or OH if unused. Positions of bridges follow the written chain, without caps; N, C: chain ends. TBMB = c1c(C[*:1])cc(C[*:3])cc1C[*:2]

Key:
[1] = target: rat PK (Rattus norvegicus, UniProt P14272); conditions: highest concentration tested (10 μM)
[2] = target: human PK (hPK) (Homo sapiens, UniProt P03952)
human PK (hPK), sequence (P03952 391-638 limits assumed): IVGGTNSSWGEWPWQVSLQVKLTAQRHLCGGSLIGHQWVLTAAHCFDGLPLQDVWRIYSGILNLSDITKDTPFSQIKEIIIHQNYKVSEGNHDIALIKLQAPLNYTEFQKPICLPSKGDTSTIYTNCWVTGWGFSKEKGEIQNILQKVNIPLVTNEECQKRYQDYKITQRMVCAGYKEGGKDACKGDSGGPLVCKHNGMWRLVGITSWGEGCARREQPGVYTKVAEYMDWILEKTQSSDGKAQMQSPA
human PK (hPK), sequence (P03952 20-390 partner limits assumed): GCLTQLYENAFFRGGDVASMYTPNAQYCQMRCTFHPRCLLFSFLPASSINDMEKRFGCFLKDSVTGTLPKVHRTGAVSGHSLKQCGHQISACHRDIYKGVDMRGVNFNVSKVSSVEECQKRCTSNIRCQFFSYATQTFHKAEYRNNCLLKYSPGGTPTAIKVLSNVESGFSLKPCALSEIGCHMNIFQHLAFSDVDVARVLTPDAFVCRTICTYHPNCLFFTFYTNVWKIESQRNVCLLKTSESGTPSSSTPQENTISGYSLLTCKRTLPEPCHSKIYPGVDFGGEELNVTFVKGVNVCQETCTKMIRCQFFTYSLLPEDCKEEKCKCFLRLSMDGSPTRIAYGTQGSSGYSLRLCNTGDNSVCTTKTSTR

[3] = target: factor XIa (hfXIa) (Homo sapiens, UniProt P03951); conditions: highest concentration tested (10 μM)
factor XIa (hfXIa), sequence (P03951 388-625 limits assumed): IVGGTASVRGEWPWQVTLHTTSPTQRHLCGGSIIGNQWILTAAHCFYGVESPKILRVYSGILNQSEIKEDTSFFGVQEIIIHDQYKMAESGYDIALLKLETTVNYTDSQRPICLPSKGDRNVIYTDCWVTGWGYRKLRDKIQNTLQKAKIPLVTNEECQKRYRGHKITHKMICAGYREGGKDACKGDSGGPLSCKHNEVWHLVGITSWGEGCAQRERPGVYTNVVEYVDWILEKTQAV
factor XIa (hfXIa), sequence (P03951 19-387 partner limits assumed): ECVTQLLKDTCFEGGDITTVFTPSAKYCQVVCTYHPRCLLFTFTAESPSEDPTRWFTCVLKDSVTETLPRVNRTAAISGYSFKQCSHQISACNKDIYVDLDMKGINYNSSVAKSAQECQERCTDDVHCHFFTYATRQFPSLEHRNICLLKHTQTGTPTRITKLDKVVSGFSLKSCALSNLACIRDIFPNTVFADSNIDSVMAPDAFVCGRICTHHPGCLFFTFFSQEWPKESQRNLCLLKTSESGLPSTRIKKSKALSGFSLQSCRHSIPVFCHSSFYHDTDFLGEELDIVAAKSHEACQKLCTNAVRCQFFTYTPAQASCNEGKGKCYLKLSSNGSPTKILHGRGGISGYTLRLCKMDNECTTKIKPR

[4] = target: thrombin (Homo sapiens, UniProt P00734); conditions: highest concentration tested (10 μM)

rat PK, sequence (P14272 20-638): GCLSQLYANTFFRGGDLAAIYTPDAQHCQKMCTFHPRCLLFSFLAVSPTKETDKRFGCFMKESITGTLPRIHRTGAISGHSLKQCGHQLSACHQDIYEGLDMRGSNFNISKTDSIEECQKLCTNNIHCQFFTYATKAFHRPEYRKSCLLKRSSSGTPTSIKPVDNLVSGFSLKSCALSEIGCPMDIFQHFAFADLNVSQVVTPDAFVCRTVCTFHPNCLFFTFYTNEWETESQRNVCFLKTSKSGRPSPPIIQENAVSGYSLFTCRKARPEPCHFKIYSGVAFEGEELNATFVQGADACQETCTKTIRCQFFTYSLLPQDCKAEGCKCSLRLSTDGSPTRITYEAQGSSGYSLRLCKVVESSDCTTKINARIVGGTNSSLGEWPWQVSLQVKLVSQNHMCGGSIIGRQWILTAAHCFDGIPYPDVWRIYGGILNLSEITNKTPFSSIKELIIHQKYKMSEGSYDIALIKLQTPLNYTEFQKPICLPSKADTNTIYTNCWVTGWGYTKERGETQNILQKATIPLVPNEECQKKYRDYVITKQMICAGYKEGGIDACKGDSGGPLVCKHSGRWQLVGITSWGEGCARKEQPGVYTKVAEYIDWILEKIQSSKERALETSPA

inhibition of rat PK [1]: did not inhibit
Ki [2]: 3 nM
inhibition of human factor XIa [3]: did not inhibit
inhibition of thrombin [4]: did not inhibit
Substance: three cysteines containing peptide (H-ACSDRFRNCPADEALCG-NH2) (SEQ ID NO: 18) coupled with TBMB; inhibitor of human plasma kallikrein (linker 2-9-16 via TBMB) [PK15]
